Assay results published in publication PMC5394233, “Structural and functional analysis of the human POT1-TPP1 telomeric complex” (Nature Communications, 2017).

T1: human POT1C (residues 330-634) Q623H (human, UniProt Q9NUX5 330-634, Q623H)
T1 construct: POT1, human, C-terminal portion (OB-fold and HJR domain), residues 330-634, with the germline melanoma-associated mutation Q623H; PDB 5UN7 holds the wild-type parent with the same limits; The methods describe tag cleavage by TEV for the co-purified complex; For ITC the proteins were purified separately; also called POT1C Q623H; source: E. coli ScarabXpress T7 lac, purified (Ni-NTA, Poros HS/HQ, …)
T1 sequence (looked up): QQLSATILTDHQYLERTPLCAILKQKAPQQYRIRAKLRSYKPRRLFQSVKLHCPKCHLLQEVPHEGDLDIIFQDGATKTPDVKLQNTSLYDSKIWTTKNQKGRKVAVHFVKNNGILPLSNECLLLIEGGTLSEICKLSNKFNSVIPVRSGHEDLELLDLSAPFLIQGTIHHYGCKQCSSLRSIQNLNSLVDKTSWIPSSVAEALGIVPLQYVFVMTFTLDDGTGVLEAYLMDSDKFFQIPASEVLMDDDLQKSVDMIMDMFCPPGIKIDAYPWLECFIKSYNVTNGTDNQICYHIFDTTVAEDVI


Columns and labels:
[1] = target: human POT1C (330-634) C591W (human) (UniProt Q9NUX5); assay: ITC; MicroCal iTC200; 100 uM TPP1(PBD) injected into the cell with 10 uM POT1C; 25 C; 25 mM Hepes pH 7.5, 0.1 M KCl, 5% glycerol, 1 mM TCEP; 16 injections of 2.47 ul; proteins purified separately
[2] = target: human POT1C (330-634) P475L (human) (UniProt Q9NUX5); assay: as above
[3] = target: human POT1C (330-634) P446Q (human) (UniProt Q9NUX5); assay: as above
[4] = target: human POT1 C-terminus (POT1C), residues 330-634, wild type (human) (UniProt Q9NUX5); assay: as above
[5] = target: human POT1C (330-634) L343F (human) (UniProt Q9NUX5); assay: as above
Sequence of human POT1C (330-634) L343F (human) (Q9NUX5 330-634 L343F): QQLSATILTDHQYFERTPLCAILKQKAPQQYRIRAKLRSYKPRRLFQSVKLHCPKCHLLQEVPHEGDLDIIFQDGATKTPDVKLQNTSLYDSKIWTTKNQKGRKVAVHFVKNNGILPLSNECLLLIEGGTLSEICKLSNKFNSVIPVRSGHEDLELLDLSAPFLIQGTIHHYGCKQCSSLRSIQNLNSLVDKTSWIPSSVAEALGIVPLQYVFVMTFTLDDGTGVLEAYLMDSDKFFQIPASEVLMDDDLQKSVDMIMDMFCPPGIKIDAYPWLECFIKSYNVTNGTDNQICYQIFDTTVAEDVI

[6] = target: human POT1C (330-634) R477T (human) (UniProt Q9NUX5); assay: as above
[7] = target: human POT1C (330-634) Q623H (human) (UniProt Q9NUX5); assay: as above
[8] = target: human POT1C (330-634) A532P (human) (UniProt Q9NUX5); assay: as above
[9] = target: T1, human POT1C (residues 330-634) Q623H; assay: ITC; 100 uM TPP1(PBD) injected into the cell with 10 uM POT1C; 25 °C; 25 mM Hepes pH 7.5, 0.1 M KCl, 5% glycerol, 1 mM TCEP; 16 injections of 2.47 ul; three independent experiments; conditions: both partners purified

Kd [1] [nM] | Kd [2] [nM] | Kd [3] [nM] | Kd [4] [nM] | Kd [5] [nM] | Kd [6] [nM] | Kd [7] [nM] | Kd [8] [nM] | Kd [9] [nM] | Molecule
870 | 164 | 289 | 120 | 114 | 123 | 471 | 117 |  | human TPP1 POT1-binding domain, TPP1(PBD), residues 255-337 (from UniProt Q96AP0 255-337) (domain or fragment)
 |  |  |  |  |  |  |  | 472 | human TPP1(PBD), residues 255-337 (domain or fragment) SQLLDEMREDQEHQGALVCLAESCLTLEGPCTAPPVTHWAASRCKATGEAVYTVPSSMLCISENDQLILSSLGPCQRTQGPEL
